The results in this text go back to patent US20040213788A1 (published 2004).

The target in experiment [1] is T1, soluble human RANKL protein (human, UniProt O14788 140-317, limits assumed, biotinylated at a 20:1 molar ratio of NHS-biotin to protein (in the competition ELISA only)).
T1 construct: Soluble form; Biotinylated in the ELISA, unlabelled in the cell assays; also called shRANKL; sRANKL
T1 sequence (looked up): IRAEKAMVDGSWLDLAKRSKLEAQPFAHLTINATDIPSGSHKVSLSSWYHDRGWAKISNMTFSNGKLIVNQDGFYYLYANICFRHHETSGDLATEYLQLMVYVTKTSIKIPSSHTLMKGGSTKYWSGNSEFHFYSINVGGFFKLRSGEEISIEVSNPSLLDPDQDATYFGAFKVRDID
The experiment can be described thus: competition ELISA: inhibition of biotinylated shRANKL (0.43 nM) binding to coated RANK-Fc. The text has this: (§1) A. A competition ELISA was established using a human RANK-Fc fusion protein coated on plastic and a biotinylated soluble human RANKL protein for detection in solution. The RANK-FC and RANKL proteins were produced in CHO cells and Pichia pastoris, respectively, and purified to >90% homogeneity. The shRANKL (soluble, human RANKL) protein was biotinylated at a 20:1 molar ratio of NHS-biotin to protein (Pierce, Rockford, Ill.) according to the manufacturer's specifications. 96-well ELISA plates were coated overnight at 4° C. with 50 ng/well ([…]) RANK-Fc in pH 9.6 carbonate-bicarbonate buffer. Plates were washed in pH 7.4 Tris-Saline buffer containing 0.1% Tween 20 and blocked for 2 h at RT in 1% BSA/PBS. Competitor proteins (RANK-Fc; death receptor 5 (DR5)-Fc; OPG-Fc; RANKL mAb 14F3) were diluted in 0.01% Tween 20/PBS and added to wells prior to the addition of biotinylated shRANKL (0.43 nM) and the combined samples were incubated for 2 hrs at room temperature. The amount of biotinylated shRANKL bound to coated RANK-Fc (+/−competitor) was measured using alkaline phosphatase conjugated streptavidin. The substrate for signal detection was 105 PNPP (Pierce Inc., Rockford, Ill.) and absorbence measured at 405 nm using a Spectra Max 340 plate reader.

Experiment [2] deals with T1, soluble human RANKL protein. Put plainly: cell-based or functional assay.
For experiment [3] the target is unchanged. Put plainly: competition ELISA: soluble RANK-Fc inhibits biotinylated shRANKL (0.43 nM) binding to coated RANK-Fc.
From the text: as §1

Experiment [4] has the same target. Put plainly: not described; paragraph 32 names optical biosensor analysis for Kd.

B1: OPG-Fc (Fc fusion, UniProt O00300 22-201, looked up)
chain: ETFPPKYLHYDEETSHQLLCDKCPPGTYLKQHCTAKWKTVCAPCPDHYYTDSWHTSDECLYCSPVCKELQYVKQECNRTHNRVCECKEGRYLEIEFCLKHRSCPPGFGVVQAGTPERNTVCKRCPDGFFSNETSSKAPCRKHTNCSVFGLLLTQKGNATHDNICSGNSESTQKCGIDVTL
notes: also called osteoprotegerin-Fc; not shown: Fc part; not described
B1: the half-inhibitory concentration (IC50) in experiment [1] is about 0.5 nM.

B2: human RANK-Fc fusion protein (Fc fusion, UniProt Q9Y6Q6 30-212, looked up, not shown: a dimerising Fc or GST)
chain: IAPPCTSEKHYEHLGRCCNKCEPGKYMSSKCTTTSDSVCLPCGPDEYLDSWNEEDKCLLHKVCDTGKALVAVVAGNSTTPRRCACTAGYHWSQDCECCRRNTECAPGLGAQHPLQLNKDTVCKPCLAGYFSDAFSSTDKCRPWTNCTFLGKRVEHHGTEKSDAVCSSSLPARKPPNEPHVYLP
On to B2, for which, in experiment [2], the “IC50, formation of multinuclear cells (human monocyte osteoclastogenesis)” value is about 500 ng/mL. Besides, in experiment [3], the half-maximal inhibitory concentration (IC50) was about 6 nM.

B3: mouse monoclonal antibody 14F3 (antibody, V domains shown)
VH: EVQLVESGGDLVKPGGSLKLSCAASGFTFSRYGMSWVRQTPDKRLEWVATISSGGSYTYYPDSVKGRFTISRDNAKNTLYLQMSSLKSEDTAMYYCARLDGYNYRWYFDVWGTGTTVTVSS
VL: DIVMTQSHKFMSTSVGDRVSITCKASQDVSSAVAWYQQKPGQSPKLLIYSASYRYTGVPDRFTGSGSGTDFTFTISSVQAEDLAVYYCQQHYSSPRTFGGGTNLEIKR
notes: Whole mouse IgG2a/kappa purified from hybridoma; also called 14F3 mAb; RANKL mAb 14F3
With B3, in experiment [4], the dissociation constant (Kd) was about 0.1 nM. The “IC50, formation of multinuclear cells (human monocyte osteoclastogenesis)” value in experiment [2] was about 4000 ng/mL. Further, the IC50 in experiment [1] was about 2 nM.
